From patent publication US20100040754A1

Target: hT1R2-hT1R3, human sweetness receptor (human) (UniProt Q8TE23)
Assay: cell-based or functional assay

Chain of UniProt Q8TE23 (Q8TE23 20-839, chain 1 of 2): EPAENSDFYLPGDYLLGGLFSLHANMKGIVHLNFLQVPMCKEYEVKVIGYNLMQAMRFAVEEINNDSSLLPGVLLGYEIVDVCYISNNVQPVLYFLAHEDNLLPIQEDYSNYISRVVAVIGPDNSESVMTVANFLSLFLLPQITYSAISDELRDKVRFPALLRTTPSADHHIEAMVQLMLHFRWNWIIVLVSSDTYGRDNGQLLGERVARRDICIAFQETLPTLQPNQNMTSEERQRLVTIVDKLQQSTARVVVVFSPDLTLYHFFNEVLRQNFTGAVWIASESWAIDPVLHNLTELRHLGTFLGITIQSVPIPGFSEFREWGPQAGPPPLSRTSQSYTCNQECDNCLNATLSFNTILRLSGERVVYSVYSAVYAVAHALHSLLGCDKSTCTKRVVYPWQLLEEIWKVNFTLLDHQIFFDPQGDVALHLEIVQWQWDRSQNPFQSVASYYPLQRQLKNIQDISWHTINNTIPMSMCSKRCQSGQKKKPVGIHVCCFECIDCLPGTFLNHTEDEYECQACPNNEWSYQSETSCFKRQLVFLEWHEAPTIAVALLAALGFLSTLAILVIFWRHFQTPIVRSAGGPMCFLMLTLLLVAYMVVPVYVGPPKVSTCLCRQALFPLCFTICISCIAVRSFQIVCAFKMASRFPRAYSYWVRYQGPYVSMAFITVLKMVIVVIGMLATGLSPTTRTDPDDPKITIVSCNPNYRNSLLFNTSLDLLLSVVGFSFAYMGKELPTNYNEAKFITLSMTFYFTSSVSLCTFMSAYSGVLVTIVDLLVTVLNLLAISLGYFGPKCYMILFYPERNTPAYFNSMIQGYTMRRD
Chain of UniProt Q8TE23 (Q7RTX0 21-852, chain 2 of 2, further chain): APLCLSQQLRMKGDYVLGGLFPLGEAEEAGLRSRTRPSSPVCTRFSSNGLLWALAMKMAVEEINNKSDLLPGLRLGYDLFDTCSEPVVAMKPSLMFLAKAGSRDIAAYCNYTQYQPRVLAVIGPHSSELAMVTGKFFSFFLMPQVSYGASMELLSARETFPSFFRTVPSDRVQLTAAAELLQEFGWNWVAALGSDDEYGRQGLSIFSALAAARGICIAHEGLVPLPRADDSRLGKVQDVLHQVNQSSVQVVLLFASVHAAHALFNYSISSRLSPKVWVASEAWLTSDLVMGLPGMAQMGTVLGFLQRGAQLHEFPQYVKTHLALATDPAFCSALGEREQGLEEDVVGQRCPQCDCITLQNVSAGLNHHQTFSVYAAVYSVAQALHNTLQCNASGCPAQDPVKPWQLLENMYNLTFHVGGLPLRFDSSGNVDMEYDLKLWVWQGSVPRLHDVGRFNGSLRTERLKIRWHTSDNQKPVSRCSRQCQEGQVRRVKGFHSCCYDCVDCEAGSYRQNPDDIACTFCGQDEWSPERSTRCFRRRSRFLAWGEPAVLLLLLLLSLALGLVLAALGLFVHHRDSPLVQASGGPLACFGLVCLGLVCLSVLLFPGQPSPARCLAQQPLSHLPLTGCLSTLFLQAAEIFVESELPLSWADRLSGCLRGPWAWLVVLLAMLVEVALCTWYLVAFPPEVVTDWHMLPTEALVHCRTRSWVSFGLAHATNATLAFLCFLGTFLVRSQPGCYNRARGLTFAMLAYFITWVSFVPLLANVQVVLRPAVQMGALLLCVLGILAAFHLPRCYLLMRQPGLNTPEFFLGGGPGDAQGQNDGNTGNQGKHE

Substance: neoculin (heterodimer of polypeptide NAS and polypeptide NBS) (from UniProt Q6F495 23-135; P19667 23-136) (ligand)
- response of the cells around pH 7, against the response in the acidic region (fraction of the response): 0.5
- response of the cells around pH 8, against the response in the acidic region (fraction of the response): 0.1
